Assay: IE-HPLC analysis of rhGH deamidation before/after spray-drying
Format: physicochemical
Details: 130° C.
Experimental: Recombinant human growth hormone in sodium carbonate buffer was dissolved in water. Sodium hyaluronate was present in the composition at a concentration of 2 mg/mL and rhGH at a concentration of 1 mg/mL. The weight ratio protein/sodium hyaluronate was equal to 0.5.
The composition was then spray dried with an inlet temperature of 130° C.
An ion-exchange high performance liquid chromatography (IE-HPLC) analysis was performed to evaluate the […] of rhGH and a size-exclusion chromatography high performance liquid chromatography (SEC-HPLC) analysis was performed to evaluate the aggregation of this protein.

## rhGH: recombinant human growth hormone
  Stability in the spray-drying process: degraded

From patent US9415012B2, “Sustained-release composition containing peptides as active ingredient” (IPSEN PHARMA S.A.S., priority 2011, dated 2016)
